Results on one substance are retold here after patent US7803377B2, “Anti-DLL4 antibodies and methods using same” (Genentech, Inc., priority 2006, dated 2010).

The Kd is the free concentration of one partner at which half of the binding sites on the other are occupied at equilibrium, for simple one-to-one binding.

Assay [1] concerns the target mouse DLL4 (Mus musculus, UniProt Q9JI71). The experiment in a line: ELISA binding to coated purified recombinant proteins. The settings on record: plates coated with recombinant protein 1 μg/ml. The protocol:
(§1) 96-well Nunc Maxisorp plates were coated with purified recombinant proteins as indicated (1 μg/ml). […] Bound antibodies were detected with anti-human antibody HRP conjugate using TMB as substrate and OD 450 nm absorbance measurement. Anti-HER2 and recombinant ErbB2-ECD were used as assay control (FIG. 11b).
A general note: In an ELISA, binding on a coated surface is turned into a signal by an enzyme label.

The target in assay [2] is Jag1 (Homo sapiens, UniProt P78504). The assay is described as above. The settings on record: plates coated with recombinant protein 1 μg/ml. As to the method: as §1
Assay [3] deals with T1, DLL1 (Homo sapiens, UniProt O00548).
T1 sequence (O00548 18-723): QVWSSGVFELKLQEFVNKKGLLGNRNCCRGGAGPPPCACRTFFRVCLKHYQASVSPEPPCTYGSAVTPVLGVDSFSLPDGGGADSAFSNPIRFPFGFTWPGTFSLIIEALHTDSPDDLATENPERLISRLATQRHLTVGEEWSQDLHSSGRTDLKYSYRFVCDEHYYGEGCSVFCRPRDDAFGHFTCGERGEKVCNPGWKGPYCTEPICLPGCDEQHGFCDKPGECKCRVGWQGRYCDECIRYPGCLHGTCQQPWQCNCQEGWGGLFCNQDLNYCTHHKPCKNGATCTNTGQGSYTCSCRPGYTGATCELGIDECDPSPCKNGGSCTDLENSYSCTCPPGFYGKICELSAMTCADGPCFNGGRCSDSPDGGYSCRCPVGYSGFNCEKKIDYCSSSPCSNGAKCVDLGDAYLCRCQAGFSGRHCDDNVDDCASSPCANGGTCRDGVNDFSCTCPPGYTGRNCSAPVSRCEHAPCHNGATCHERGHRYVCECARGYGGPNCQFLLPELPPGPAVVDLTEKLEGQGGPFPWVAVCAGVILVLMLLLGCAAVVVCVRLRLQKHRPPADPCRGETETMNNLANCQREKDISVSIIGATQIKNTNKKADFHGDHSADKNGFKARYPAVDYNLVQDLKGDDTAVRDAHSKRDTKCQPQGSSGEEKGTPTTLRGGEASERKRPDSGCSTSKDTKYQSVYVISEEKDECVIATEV
Described as above. The settings on record: plates coated with recombinant protein 1 μg/ml. As to the method:
as §1

For assay [4], the target named is DLL4 (Homo sapiens, UniProt Q9NR61). The assay is described as above. The settings on record: plates coated with recombinant protein 1 μg/ml. As to the method: as §1
For assay [5], the system named is human colorectal cancer SW620. The experiment in a line: Tumor model SW620. The settings on record: 5 mg/kg, IP, twice weekly after establishment of the tumors. The format is in vivo, mouse. The protocol:
(§2) Tumor models. Beige nude female mice of 8- to 10-week-old were used. To obtain subcutaneous tumors, mice were injected with 0.1 ml cell suspension containing 50% matrigel (BD Bioscience) into the right posterior flank. 5×10^6 human colon cancer HM7 cells, 10×10^6 human colon carcinoma Colo205 cells, 10×10^6 human lung carcinoma Calu6 cells, 10×10^6 human lung carcinoma MV-522 cells, 10×10^6 mouse leukemia WEHI-3 cells, 10×10^6 mouse lymphoma EL4 cells, 10×10^6 human ovarian cancer SK-OV-3 X1 cells, 10×06 mouse lung cancer LL2 cells, 10×10^6 leukemia/lymphoma EL4 cells, or 10×10^6 non-small lung cancer H1299 cells were injected into each mouse. For human melanoma MDA-MB-435 model, mice were injected into the mammary fat pad with 0.1 ml cell (5×10^6) suspension containing 50% matrigel. […] For the following tumor models, each test mouse received a subcutaneous tumor fragment (1 mm^3) implanted in the right flank: non-small lung cancer SKMES-1, human breast cancer MX-1, human colorectal cancer SW620 and human adenocarcinoma LS174T. The tumor growth was quantitated by caliper measurements. Tumor volume (mm^3) was determined by measuring the length (l) and width (w) and calculating the volume (V=lw2/2). 10 to 15 animals were included in each group. Statistical comparison of treatment groups was performed using two-tailed Student's t-test. […]

Assay [6] deals with human breast cancer MX-1. The assay can be described thus: Tumor model MX-1. It counts as in vivo, mouse. The settings on record: 5 mg/kg, IP, twice weekly after establishment of the tumors. As to the method:
as §2

In assay [7] the target is T2, murine Delta4 (ECD5.5) (Mus musculus, UniProt Q9JI71).
T2 construct: murine Delta4 (ECD5.5); His
T2 sequence (Q9JI71 27-405 limits assumed): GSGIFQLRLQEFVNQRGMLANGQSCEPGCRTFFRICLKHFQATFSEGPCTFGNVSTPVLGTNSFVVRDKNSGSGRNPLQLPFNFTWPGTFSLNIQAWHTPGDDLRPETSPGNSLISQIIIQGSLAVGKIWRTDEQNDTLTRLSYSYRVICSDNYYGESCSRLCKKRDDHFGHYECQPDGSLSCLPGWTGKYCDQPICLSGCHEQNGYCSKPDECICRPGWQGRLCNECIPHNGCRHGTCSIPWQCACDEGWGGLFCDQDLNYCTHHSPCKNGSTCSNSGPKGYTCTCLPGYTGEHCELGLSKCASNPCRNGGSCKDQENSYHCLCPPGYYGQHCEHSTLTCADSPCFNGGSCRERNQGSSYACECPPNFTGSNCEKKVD
The assay can be described thus: Surface plasmon resonance (BIAcore-3000) binding affinity and kinetics. The settings on record: murine DLL4-His; Kd calculated as koff/kon. As to the method:
(§3) To determine the binding affinity of the anti-DLL4 Mabs, surface plasmon resonance (SRP) measurement with a BIAcore™-3000 was used (BIAcore, Inc., Piscataway, N.J.). Briefly, carboxymethylated dextran biosensor chips (CM5, BIAcore Inc.) were activated with N-ethyl-N′-(3-dimethylaminopropyl)-carbodiimide hydrochloride (EDC) and N-hydroxysuccinimide (NHS) according to the supplier's instructions. Anti-DLL4 antibody was diluted with 10 mM sodium acetate, pH 4.8, into 5 μg/ml before injection at a flow rate of 5 μl/minute to achieve approximately 500 response units (RU) of coupled antibody. Next, IM ethanolamine was injected to block unreacted groups. For kinetics measurements, two-fold serial dilutions of either human or murine DLL4-His molecules (0.7 nM to 500 nM) were injected in PBS with 0.05% Tween™ 20 at 25° C. at a flow rate of 25 μl/min. Association rates (kon) and dissociation rates (koff) were calculated using a simple one-to-one Langmuir binding model (BIAcore Evaluation Software version 3.2). The equilibrium dissociation constant (Kd) was calculated as the ratio koff/kon.

For assay [8], the target named is T3, human Delta4 (ECD5.5) (Homo sapiens, UniProt Q9NR61).
T3 construct: DLL4-His (C-terminal His-tagged human DLL4, amino acid 1-404); His (C)
The assay is described as above. The settings on record: human DLL4-His; Kd calculated as koff/kon; listed as YW26.81. As to the method: as §3

Assay [9] has as its system human colon cancer HM7 cells. The experiment in a line: Tumor model HM7. The format is in vivo, mouse. The settings on record: treatment initiated at ≧250 mm^3; 10 mg/kg i.p. twice weekly; two weeks of treatment. The protocol:
as §2

Assay [10] has as its system human adenocarcinoma LS174T. The experiment in a line: Tumor model LS174T. The format is in vivo, mouse. The settings on record: 5 mg/kg, IP, twice weekly after establishment of the tumors. As to the method: as §2

mouse DLL4, sequence (Q9JI71 27-686): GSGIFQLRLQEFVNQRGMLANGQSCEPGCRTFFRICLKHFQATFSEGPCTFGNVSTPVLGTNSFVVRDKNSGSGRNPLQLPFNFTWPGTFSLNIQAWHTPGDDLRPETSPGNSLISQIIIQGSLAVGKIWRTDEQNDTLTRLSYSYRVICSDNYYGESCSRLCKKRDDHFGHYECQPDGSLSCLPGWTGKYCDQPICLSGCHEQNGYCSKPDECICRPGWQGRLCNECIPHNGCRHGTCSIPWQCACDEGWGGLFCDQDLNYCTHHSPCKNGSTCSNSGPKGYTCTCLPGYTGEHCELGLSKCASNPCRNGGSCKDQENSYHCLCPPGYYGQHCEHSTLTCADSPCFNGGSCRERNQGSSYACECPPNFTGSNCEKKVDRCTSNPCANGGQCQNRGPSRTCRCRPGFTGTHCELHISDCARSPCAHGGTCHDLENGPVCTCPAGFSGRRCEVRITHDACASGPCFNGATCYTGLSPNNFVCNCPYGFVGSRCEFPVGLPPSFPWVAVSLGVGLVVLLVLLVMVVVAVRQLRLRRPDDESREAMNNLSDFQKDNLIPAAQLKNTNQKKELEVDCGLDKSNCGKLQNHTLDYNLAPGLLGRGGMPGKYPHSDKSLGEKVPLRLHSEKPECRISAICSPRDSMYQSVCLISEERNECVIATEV

As for “YW26.82: affinity matured anti-DLL4 monoclonal antibody; HVR-H1/H2/H3 SEQ ID NO:1, 8, 9; HVR-L1/L2/L3 SEQ ID NO:10, 11, 18”, the “binding by ELISA” value in assay [1] is “bound”; in assay [2] it was “did not delectably bind”; in assay [3] it was “did not delectably bind”; in assay [4], “bound”. For the same substance, the “tumor growth, single agent” value in assay [5], in assay [6] and in assay [10] was “inhibited tumor growth alone” in each case. In addition, the results for the Kd in assay [7] and in [8] were 0.09 nM and 0.1 nM, respectively. In assay [9], the tumor volume result is recorded as “remained static”.
